Experiments:
[1] = target: T1, rhesus macaque CD8 on expanded primary T cells (rhesus macaque); assay: flow cytometry, Rhesus Expanded T cells Donor 8, gated on CD4- T cells, anti-human Fc BV421
T1 construct: also called CD4- CD8+ rhesus T cells
Protocol: (§1) Binding was measured by fluorescence from the BV421 fluorophore-conjugated anti-human Fc secondary antibody that recognize the binders. The gMFI was normalized to the gMFI of the secondary antibody in the absence of the anti-CD8α binders.
(§2) To obtain the results shown in FIG. 8A and FIG. 8B, 5×10⁴ expanded primary T cells (human, cynomolgus macaque or rhesus monkey) were thawed and transferred to a V bottom 96-well culture plate (Corning). Cells were washed twice with Cell Staining buffer (#420201, Biolegend). Each anti-CD8α antibody was diluted in four-fold antibody titration series from 60 μg/mL to 0.057 ng/mL into Cell Staining buffer. […] Cells were then washed three times with Cell Staining buffer and primary antibody binding was detected by staining with anti-human Fc BV421 conjugate antibody (#410704, Biolegend) at 1:200 dilution for 30 minutes on ice. […] Flow cytometry data was analyzed by Flowjo 10 (Becton, Dickinson & Company) to measure the geometric median fluorescence intensity (gMFI) of the on-cell binding from each antibody. The gMFI values were normalized with the gMFI measured in the sample stained with only the secondary detection antibody and plotted against the concentration of the added antibodies. The binding curves were constructed using Graphpad Prism software, and EC₅₀ values were determined by non-linear curve fitting.

[2] = target: T2, human CD8 on cells (CD8-overexpressing HEK293T cells, SupT1, HPB-ALL, human T cells, transfected HEK293 of … (human, UniProt P01732 22-235)); assay: flow cytometry, Human Expanded T cells Donor 5, gated on CD4- T cells, anti-human Fc BV421
T2 construct: whole, on cells; also called cell surface CD8
T2 sequence (P01732 22-235): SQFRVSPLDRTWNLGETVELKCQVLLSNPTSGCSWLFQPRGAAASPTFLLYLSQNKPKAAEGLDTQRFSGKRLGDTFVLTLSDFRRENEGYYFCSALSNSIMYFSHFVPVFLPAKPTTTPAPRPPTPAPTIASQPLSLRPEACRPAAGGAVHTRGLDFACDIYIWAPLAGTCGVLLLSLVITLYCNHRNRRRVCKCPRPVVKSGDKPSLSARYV
Protocol: as §1, §2

[3] = target: T2, human CD8 on cells (CD8-overexpressing …); assay: flow cytometry on CD8-overexpressing HEK293T cells, non-linear fit of normalized gMFI
Protocol: To obtain the results shown in FIG. 3A, that determined EC₅₀ values for antigen-specific binding, CD8-overexpressing HEK293T cells were dissociated in Versine solution (PBS buffer at pH 7.4 supplemented with 0.5 mM EDTA), and 2×10⁵ total cells were transferred to a V-bottom 96 well culture plate (Corning). Cells were washed twice with Cell Staining buffer (#420201, Biolegend). Each anti-CD8α antibody with human IgG1 isotype and Fc-silencing mutations L234A, L235A and P329A was diluted in four-fold antibody titration series from 100 μg/mL to 6.1 ng/ml into Cell Staining buffer. eFluor 780 Fixable Viability dye (eBioscience) was also included during antibody solutions at a 1:4000 dilution. Cells were stained with each diluted antibody solution for 30 minutes on ice. Cells were then washed three times with Cell Staining buffer and primary antibody binding was detected by staining with anti-human Fc BV421 conjugate antibody (#410704, Biolegend) at 1:100 dilution for 30 minutes on ice. After staining with the secondary detection antibody, cells were washed three times with Cell Staining buffer, fixed in FluoroFix buffer (Biolegend) and kept at 4° C. in the dark until analysis. Flow cytometry analysis on each sample was performed on an Agilent NovoCyte flow cytometer. Flow cytometry data was analyzed by Flowjo 10 (Becton, Dickinson & Company) to measure the geometric median fluorescence intensity (gMFI) of the on-cell binding from each antibody. The gMFI values were normalized with the gMFI measured in the sample stained with only the secondary detection antibody and plotted against the concentration of the added antibodies. The binding curves were constructed using the Graphpad Prism software, and EC₅₀ values were determined by non-linear curve fitting.

[4] = target: T3, human CD8αα homodimer, recombinant protein (Acro Biosystems) (human, UniProt P01732 22-182); assay: BLI steady state analysis, whole antibody, sample stressed at pH 8.5, 40 °C, 7 days
T3 construct: also called CD8αα antigen; biotinylated CD8α recombinant protein (CDA-H82E3)
T3 sequence (P01732 22-182 limits assumed): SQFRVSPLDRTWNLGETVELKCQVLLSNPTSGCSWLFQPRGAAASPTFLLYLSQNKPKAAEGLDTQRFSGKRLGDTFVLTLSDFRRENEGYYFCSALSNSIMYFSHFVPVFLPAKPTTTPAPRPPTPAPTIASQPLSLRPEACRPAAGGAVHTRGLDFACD
Protocol: To assess affinity of whole antibodies, steady state analysis was used as the bivalent nature of both whole antibody and CD8α complicates kinetic analysis. 50 nM CD8α-His (that is, CD8α with a C-terminal oligohistidine tag; Acro) was immobilized on Ni-NTA sensor probes. Binding was analyzed with a three-fold antibody dilutions series: 60 nM, 20 nM, 6.67 nM, 2.22 nM, 0.74 nM, and 0.25 nM. The antigen-loaded sensors were incubated in the diluted solutions to capture the whole IgG antibody for 300 s to record the association phase. Sensors were incubated in the kinetic buffer for 900 s to record the dissociation phase. The spin speed was 1000 rpm for all steps except the antigen loading step which was 400 rpm to control density of the antigen. The temperature of the performed assays was at 30° C. during the association and dissociation phases. The sensor data were baseline subtracted and further analyzed in GatorOne software (version 2.10) to determine the equilibrium dissociation constants (KD) of the antibodies by fitting the signals of the steady states to the 1:1 binding model.

[5] = target: T4, cynomolgus macaque CD8 on expanded primary T cells (cynomolgus macaque); assay: flow cytometry, Cyno Expanded T cells Donor 10, gated on live CD8 T cells (via CD3+CD4-)
T4 construct: also called CD4- CD8+ cynomolgus macaque T cells
Protocol: (§3) To obtain the results shown in FIG. 8A and FIG. 8B, 5×10⁴ expanded primary T cells (human, cynomolgus macaque or rhesus monkey) were thawed and transferred to a V bottom 96-well culture plate (Corning). Cells were washed twice with Cell Staining buffer (#420201, Biolegend). Each anti-CD8α antibody was diluted in four-fold antibody titration series from 60 μg/mL to 0.057 ng/mL into Cell Staining buffer. Cells were stained with each diluted antibody solution for 30 minutes on ice. Cells were then washed three times with Cell Staining buffer and primary antibody binding was detected by staining with anti-human Fc BV421 conjugate antibody (#410704, Biolegend) at 1:200 dilution for 30 minutes on ice. […] Flow cytometry data was analyzed by Flowjo 10 (Becton, Dickinson & Company) to measure the geometric median fluorescence intensity (gMFI) of the on-cell binding from each antibody. The gMFI values were normalized with the gMFI measured in the sample stained with only the secondary detection antibody and plotted against the concentration of the added antibodies. The binding curves were constructed using Graphpad Prism software, and EC₅₀ values were determined by non-linear curve fitting.

[6] = target: T1, rhesus macaque CD8 on expanded primary …; assay: flow cytometry, Rhesus Expanded T cells Donor 9, gated on live CD8 T cells (via CD3+CD4-)
Protocol: as §3

[7] = target: T2, human CD8 on cells (CD8-overexpressing …); assay: flow cytometry, Human Expanded T cells Donor 6, gated on CD4- T cells, anti-human Fc BV421
Protocol: as §1, §2

| Binder | EC50 (read off the curve) [1] | EC50 (read off the curve) [2] | EC50 [3] | Kd [4] | EC50 [5] | EC50 [6] | EC50 (read off the curve) [7] |
| --- | --- | --- | --- | --- | --- | --- | --- |
| CBD1033 whole antibody, human IgG1 with Fc-silencing mutations L234A, L235A and P329A (CBD1033-hIgG1-LALAPA) (antibody, V domains shown, On tLNPs the antibody was SATA-modified or AJICAP-thiolated (CBD1033.29) and conjugated to the LNP; also called CBD1033.3; CBD1033 IgG1) VH: QVQLVQSGAEVKKPGASVKVSCKASRYTFTDYNLHWVRQAPGQGLEWMGFIYPYNGGTGYAQKFQGRVTMTVDTSTSTAYMELSSLRSEDTAVYYCARDHRYNEGVSFDYWGQGTTVTVSS VL: DIQLTQSPSSLSASVGDRATITCRASESVDGFGNSFMNWYQQKPGKAPKLLIYLASNLESGVPSRFSGSGSGTDFTLTISSVQPEDFATYYCQQNNEDPYTFGQGTKLEIKR | ~0.1 µg/mL | ~0.1 µg/mL | 2.78 nM | 2.12 nM | 0.169 µg/mL | 0.993 nM | ~0.1 µg/mL |
| CBD1017ch whole antibody (chimeric CT8 antibody) (antibody, V domains shown, Chimeric antibody comprising the variable regions of the donor antibody CT8; detected with anti-human Fc) VH: EVQLQQSGPELVKPGASVKISCKASRYTFTDYNLHWVKLSHEKSLEWIGFIYPYNGGTGYNQKFKNKAKLTVDYSSSTAYMELRSLTSVDAAVYYCARDHRYNEGVSFDYWGQGTTLTVSS VL: NIVLTQSPASLAVSLGQRATISCRASESVDGFGNSFMNWYQQKPGQSPKLLIYLASNLESGVPARFSGSGSRTDFTLTIDPVEADDAATYYCQQNNEDPYTFGGGTKLEIK | ~0.05 µg/mL | ~0.05 µg/mL | 2.75 nM | 0.53 nM | 0.057 µg/mL | 0.308 nM | ~0.05 µg/mL |
